Experimental data from the supplement of paper PMC10567573.

B1: HMOX1 (parent)
chain: YHIYVALEEEIERNKESPVFAPVY
B2: FEM1A (parent)
chain: NIVEYLIQEQPGQEQVAGGEAQPG

Variants of: B1
Test: protein stability index of a GFP-peptide fusion (GPS, HEK-293T) (PSI 1-6); higher = more stable
Details: c terminus: a fixed tail appended
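Also: lentivirally expressed fusions sorted by FACS into six bins by GFP to DsRed ratio, PSI derived from sequencing read proportions per bin multiplied by bin number.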

Point of comparison: YMIYVALEEEIERNKESPVFAPVY [H2M], protein stability index 2.17. Against it:
- YHFYVALEEEIERNKESPVFAPVY [I3F] — higher, 2.91
- YHSYVALEEEIERNKESPVFAPVY [I3S] — higher, 2.26
- YHLYVALEEEIERNKESPVFAPVY [I3L] — lower, 1.92
- YHDYVALEEEIERNKESPVFAPVY [I3D] — higher, 2.27
- YHYYVALEEEIERNKESPVFAPVY [I3Y] — lower, 1.91
- YHMYVALEEEIERNKESPVFAPVY [I3M] — lower, 1.77
- YHRYVALEEEIERNKESPVFAPVY [I3R] — higher, 2.43
- YHQYVALEEEIERNKESPVFAPVY [I3Q] — higher, 2.27
- YHPYVALEEEIERNKESPVFAPVY [I3P] — lower, 2.06
- YHKYVALEEEIERNKESPVFAPVY [I3K] — lower, 1.91
- YHWYVALEEEIERNKESPVFAPVY [I3W] — lower, 2.12
- YHNYVALEEEIERNKESPVFAPVY [I3N] — lower, 2.12
- YHAYVALEEEIERNKESPVFAPVY [I3A] — lower, 1.42
- YHCYVALEEEIERNKESPVFAPVY [I3C] — higher, 3.57
- YHVYVALEEEIERNKESPVFAPVY [I3V] — higher, 2.18
- YHEYVALEEEIERNKESPVFAPVY [I3E] — higher, 2.33
- YHHYVALEEEIERNKESPVFAPVY [I3H] — higher, 2.29
- YHGYVALEEEIERNKESPVFAPVY [I3G] — higher, 2.77
- YHTYVALEEEIERNKESPVFAPVY [I3T] — lower, 1.92
- YQIYVALEEEIERNKESPVFAPVY [H2Q] — higher, 3.32
- YTIYVALEEEIERNKESPVFAPVY [H2T] — higher, 2.18
- YYIYVALEEEIERNKESPVFAPVY [H2Y] — lower, 1.89
- YVIYVALEEEIERNKESPVFAPVY [H2V] — higher, 2.59
- YGIYVALEEEIERNKESPVFAPVY [H2G] — higher, 2.57
- YSIYVALEEEIERNKESPVFAPVY [H2S] — higher, 2.46
- YWIYVALEEEIERNKESPVFAPVY [H2W] — lower, 1.38
- YDIYVALEEEIERNKESPVFAPVY [H2D] — higher, 3.19
- YIIYVALEEEIERNKESPVFAPVY [H2I] — lower, 1.51
- YRIYVALEEEIERNKESPVFAPVY [H2R] — higher, 2.72
- YCIYVALEEEIERNKESPVFAPVY [H2C] — lower, 1.73
- YKIYVALEEEIERNKESPVFAPVY [H2K] — higher, 2.61
- YAIYVALEEEIERNKESPVFAPVY [H2A] — higher, 2.34
- YPIYVALEEEIERNKESPVFAPVY [H2P] — higher, 2.62
- YNIYVALEEEIERNKESPVFAPVY [H2N] — higher, 2.7
- YEIYVALEEEIERNKESPVFAPVY [H2E] — higher, 3.12
- YFIYVALEEEIERNKESPVFAPVY [H2F] — higher, 2.25
- YLIYVALEEEIERNKESPVFAPVY [H2L] — the same, 2.17
- YHIAVALEEEIERNKESPVFAPVY [Y4A] — higher, 2.34
- WHIYVALEEEIERNKESPVFAPVY [Y1W] — higher, 2.59
- NHIYVALEEEIERNKESPVFAPVY [Y1N] — higher, 3.93
- EHIYVALEEEIERNKESPVFAPVY [Y1E] — higher, 4.37
- HHIYVALEEEIERNKESPVFAPVY [Y1H] — higher, 2.5
- AHIYVALEEEIERNKESPVFAPVY [Y1A] — higher, 2.6
- THIYVALEEEIERNKESPVFAPVY [Y1T] — higher, 3.71
- FHIYVALEEEIERNKESPVFAPVY [Y1F] — lower, 2.03
- LHIYVALEEEIERNKESPVFAPVY [Y1L] — lower, 1.64
- QHIYVALEEEIERNKESPVFAPVY [Y1Q] — higher, 2.78
- SHIYVALEEEIERNKESPVFAPVY [Y1S] — higher, 2.81
- IHIYVALEEEIERNKESPVFAPVY [Y1I] — higher, 3.18
- GHIYVALEEEIERNKESPVFAPVY [Y1G] — higher, 2.26
- KHIYVALEEEIERNKESPVFAPVY [Y1K] — higher, 2.57
- CHIYVALEEEIERNKESPVFAPVY [Y1C] — lower, 1.89
- MHIYVALEEEIERNKESPVFAPVY [Y1M] — higher, 2.35
- PHIYVALEEEIERNKESPVFAPVY [Y1P] — higher, 2.46
- DHIYVALEEEIERNKESPVFAPVY [Y1D] — higher, 4.59
- VHIYVALEEEIERNKESPVFAPVY [Y1V] — lower, 1.67
- RHIYVALEEEIERNKESPVFAPVY [Y1R] — higher, 2.73

Variants of: B2
Test: as above
Details: c terminus: a fixed tail appended

Point of comparison: NIVEYLIQEQPGQEQVAGGEAQVG [P23V], protein stability index 4.09. Against it:
- NIVEYLIQEQPGQEQVAGGEAQGG [P23G] — higher, 4.19
- NIVEYLIQEQPGQEQVAGGEAQMG [P23M] — higher, 4.33
- NIVEYLIQEQPGQEQVAGGEAQYG [P23Y] — lower, 3.59
- NIVEYLIQEQPGQEQVAGGEAQQG [P23Q] — lower, 3.7
- NIVEYLIQEQPGQEQVAGGEAQCG [P23C] — lower, 3.98
- NIVEYLIQEQPGQEQVAGGEAQNG [P23N] — higher, 4.25
- NIVEYLIQEQPGQEQVAGGEAQTG [P23T] — higher, 4.14
- NIVEYLIQEQPGQEQVAGGEAQIG [P23I] — lower, 3.94
- NIVEYLIQEQPGQEQVAGGEAQRG [P23R] — lower, 3.66
- NIVEYLIQEQPGQEQVAGGEAQFG [P23F] — lower, 3.66
- NIVEYLIQEQPGQEQVAGGEAQSG [P23S] — higher, 4.46
- NIVEYLIQEQPGQEQVAGGEAQHG [P23H] — lower, 3.98
- NIVEYLIQEQPGQEQVAGGEAQLG [P23L] — higher, 4.24
- NIVEYLIQEQPGQEQVAGGEAQDG [P23D] — higher, 4.66
- NIVEYLIQEQPGQEQVAGGEAQAG [P23A] — higher, 4.93
- NIVEYLIQEQPGQEQVAGGEAQKG [P23K] — higher, 4.29
- NIVEYLIQEQPGQEQVAGGEAQWG [P23W] — lower, 3.03
- NIVEYLIQEQPGQEQVAGGEAQEG [P23E] — higher, 4.74
- NIVEYLIQEQPGQEQVAHGEAQPG [G18H] — higher, 4.47
- NIVEYLIQEQPGQEQVANGEAQPG [G18N] — higher, 4.16
- NIVEYLIQEQPGQEQVAYGEAQPG [G18Y] — lower, 3.36
- NIVEYLIQEQPGQEQVATGEAQPG [G18T] — higher, 4.2
- NIVEYLIQEQPGQEQVAVGEAQPG [G18V] — lower, 3.61
- NIVEYLIQEQPGQEQVAKGEAQPG [G18K] — lower, 3.75
- NIVEYLIQEQPGQEQVAQGEAQPG [G18Q] — higher, 4.7
- NIVEYLIQEQPGQEQVAEGEAQPG [G18E] — higher, 4.9
- NIVEYLIQEQPGQEQVASGEAQPG [G18S] — lower, 3.78
- NIVEYLIQEQPGQEQVAFGEAQPG [G18F] — lower, 2.94
- NIVEYLIQEQPGQEQVAMGEAQPG [G18M] — higher, 4.31
- NIVEYLIQEQPGQEQVAIGEAQPG [G18I] — lower, 3.85
- NIVEYLIQEQPGQEQVALGEAQPG [G18L] — lower, 3.54
- NIVEYLIQEQPGQEQVARGEAQPG [G18R] — higher, 4.15
- NIVEYLIQEQPGQEQVAWGEAQPG [G18W] — lower, 3.12
- NIVEYLIQEQPGQEQVAPGEAQPG [G18P] — higher, 4.3
- NIVEYLIQEQPGQEQVAGGEACPG [Q22C] — higher, 4.58
